This note sets out measurements from patent US20080260750A1 (MCGILL UNIVERSITY, published 2008).

First the molecules themselves.
B2: ACC-2D6.3 acetylcholine-gated chloride channel subunit (receptor)
chain: DYSELVHSAELVSSSSYIHHKTNKKPDNCTRDTDIIDRLLNGTGYNKFRIPQEEGMTVVVEIWIQAITSIDELTNDFDMDIYITETWLDPALNFQTMTPCKGNLSLNHQVLDRLWTPNSCFINSKVAQIHNSPFRSVFLMLFPNGTVMVNYRVRVKGPCSLDLSNFPLDLQKCSLIYESFNYNRQEVEMRWSDAEHPVFNLSKIMLPDFDLFEIQTERRQEPYPAGMWDELHVTIIFERRFIWYFMQAYLPTYLTIFISWISFSLGSRAIPARTMLGVNSLLAIVFSFGNIMRNLPRVSYIKGIDVWMLVSMTFIFCSLLELAIVGFMVRDETVAKKKQQKKISGNISREESPHGIISERRFMFPPGCSESSKSLSSCTSGWTPERIDSISSVMFPFSFFVFNIIYWFYYIHRKEIIKQNLINRVDG
notes: Expressed from cRNA in Xenopus oocytes; also called ACC-2D6.3 receptor; ACC-2D6.3 channel

Assay [1] concerns the target T1, ACC-3D10.5 acetylcholine-gated chloride channel subunit (C. elegans, UniProt G5EDN0 20-517).
T1 sequence: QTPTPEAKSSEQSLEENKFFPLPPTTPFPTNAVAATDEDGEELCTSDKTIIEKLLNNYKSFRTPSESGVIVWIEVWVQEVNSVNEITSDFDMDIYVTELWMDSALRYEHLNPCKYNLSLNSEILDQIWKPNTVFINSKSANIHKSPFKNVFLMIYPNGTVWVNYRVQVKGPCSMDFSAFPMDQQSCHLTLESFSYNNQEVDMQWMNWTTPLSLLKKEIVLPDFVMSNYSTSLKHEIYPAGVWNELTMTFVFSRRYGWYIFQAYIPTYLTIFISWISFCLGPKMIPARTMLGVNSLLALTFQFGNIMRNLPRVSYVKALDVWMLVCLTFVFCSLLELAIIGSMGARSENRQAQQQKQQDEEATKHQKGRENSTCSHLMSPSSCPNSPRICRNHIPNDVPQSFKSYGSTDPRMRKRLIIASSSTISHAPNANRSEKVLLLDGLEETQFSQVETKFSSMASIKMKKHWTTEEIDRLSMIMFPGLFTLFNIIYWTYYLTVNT
The assay is described as follows: co-expression in Xenopus oocytes, two-electrode voltage clamp (inferred from changed desensitization, EC50 and Hill coefficient for ACh). For orientation: Two-electrode voltage clamp is typically applied to oocytes expressing channels or transporters.
Description: (§1) Oocytes were injected with 40 nl of cRNA using the Nanoject system (Drummond Scientific, Broomall, Pa., USA). Injected oocytes were incubated at 20° C. in ND96 supplemented with 100 mg/ml gentamycin and 550 mg/ml pyruvate. Oocytes were allowed to express cRNA for two days before measurements were taken.

The target in assay [2] is T1, ACC-3D10.5 acetylcholine-gated chloride …. The assay can be described thus: co-expression in Xenopus oocytes, two-electrode voltage clamp (inferred from loss of the ACh response).
Description: as §1
Assay [3] addresses B2. The assay is described as above.
Description: as §1

B1: ACC-1G6.4 acetylcholine-gated chloride channel subunit (receptor)
chain: QSLDNCANDTEIINALLKDSYNKHYIPSHPTHVRVDMWVQEVTSVSELTQDFEIDLYINEFWEDPALVYEDMNPCKRNISFDDKVLQRLWLPNTCFINSKSAAIHESPFKNVFLMVFSNGTLWTNYRMKLTGPCDMKLKRFPFDKQKCYLTFESFNYNTGEVRMQWNQPYPVILLKRIELPDFKLVNFSVIAVEQMYPAGWWDELTVAFVFERRYGWYVLQGYIPTMVTIVISWISFYLGPRAIPARTMLGVNSLLAMTFQFGNIIRNLPRVSYVKAIDVWMLSGMLFIFLSLLELAVVGFMSRNEGLPPKVKKRKRQEDDDEGFSWKSMQTSPHLELRQFWVDKRVNSLRNDSAVPPVEDYAPMELEQPYQNITKRREKRKWMSGLRKKWRAMRELRPETVDFYSAIFFPTAYMLFNISYWSFYLTSLSEYFDEDVNIDQP
notes: Expressed from cRNA in Xenopus oocytes; also called ACC-1G6.4 receptor; ACC-1G6.4 channel
Take B1: in assay [1], the binding result is “binds”. With B2, the binding result in assay [2] is “binds”.

B3: ACC-4E9.9 acetylcholine-gated chloride channel subunit (receptor)
chain: LLRSLEDDSNECMFNCPKRARNVSVPHTEKTCMGDDAIIAQILDGYNKLDLPGGGHVVVSIEIWVQEVSKIIEITSEFELDIYVTERWTDPSLAYSHLNPCKSNMSVDGATILNKIWNPHACFVNSKLANIHESPFKNIFLQIYSNGSIWHNYRIKLTGPCSSTLRTFPIDQQRCMLFYESFTHNTDQVKMEWITTVPPITILKGNITLPDYVLVDFSSSSELRLYPPGIFNELIATFTFQRLYGFYILQVYVPAYISVFISWVSFTLGAEQIPSRTTVGVNSLLALTFQFGAVVNNLPKTSDVKAIDVWILSSMAFIFASLIELAVVGYLSRDGQHGSIKCRCSWLCMNCKDWTALKIDQMSSIVFPVSFLAFNIWYWFIFLGKLLVRTI
For B3, the binding result in assay [3] was “binds”.
